Results reported in patent US20200148733A1 (Pieris, published 2020).
Each block holds one binder with its values, some of them ahead of it.

Assays:
mouse IL-23 [1] = molecular target: T1, mouse IL-23 (mouse, UniProt Q9EQ14 22-196; P43432 23-335); experiment: solution competition ELISA (FIG. 5B)
T1 construct: also called mIL-23
T1 sequence (looked up) 1: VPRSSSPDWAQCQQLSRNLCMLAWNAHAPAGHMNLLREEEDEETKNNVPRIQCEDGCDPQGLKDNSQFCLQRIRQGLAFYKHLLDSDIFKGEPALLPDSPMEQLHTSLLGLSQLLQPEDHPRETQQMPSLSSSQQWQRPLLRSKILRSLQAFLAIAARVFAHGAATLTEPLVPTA
T1 sequence (looked up) 2: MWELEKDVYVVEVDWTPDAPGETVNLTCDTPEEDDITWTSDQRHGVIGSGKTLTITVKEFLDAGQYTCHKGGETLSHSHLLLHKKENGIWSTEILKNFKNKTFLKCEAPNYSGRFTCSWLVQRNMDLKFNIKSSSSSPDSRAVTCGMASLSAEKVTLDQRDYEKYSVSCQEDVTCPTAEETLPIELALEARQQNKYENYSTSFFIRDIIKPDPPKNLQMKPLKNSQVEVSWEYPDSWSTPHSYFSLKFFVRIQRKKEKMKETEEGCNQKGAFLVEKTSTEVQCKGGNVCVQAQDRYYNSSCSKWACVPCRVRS
Experimental: (§1) In the following detailed experimental protocol, incubation and washing steps were performed as described above in the competition ELISA protocol. A 384-well plate suitable for fluorescence measurements (Greiner FLUOTRAC™ 600, black flat bottom, high-binding) was coated with 20 μl of Neutravidin at a concentration of 5 μg/ml in PBS over night at 4° C. After washing, the Neutravidin-coated wells were blocked with 100 μl PBS-T/BSA for 1h at room temperature.

human IL-23 [2] = molecular target: T2, human IL-23 (human, UniProt Q9NPF7 20-189; P29460 23-328); experiment: competition ELISA (ECL): 0.01 nM biotinylated hIL-23 pre-incubated with varied mutein, free hIL-23 captured on coated soluble hIL-23R (competitor)
T2 construct: Heterodimer of p19 and p40; in the proliferation assays CAT # HZ-1254, HumanZyme; also called hIL-23; hIL23
T2 sequence (looked up) 1: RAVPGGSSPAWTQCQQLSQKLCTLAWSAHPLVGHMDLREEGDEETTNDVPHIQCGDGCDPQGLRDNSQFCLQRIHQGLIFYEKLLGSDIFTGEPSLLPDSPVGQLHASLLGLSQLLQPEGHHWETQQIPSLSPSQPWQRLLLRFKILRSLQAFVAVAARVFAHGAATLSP
T2 sequence (looked up) 2: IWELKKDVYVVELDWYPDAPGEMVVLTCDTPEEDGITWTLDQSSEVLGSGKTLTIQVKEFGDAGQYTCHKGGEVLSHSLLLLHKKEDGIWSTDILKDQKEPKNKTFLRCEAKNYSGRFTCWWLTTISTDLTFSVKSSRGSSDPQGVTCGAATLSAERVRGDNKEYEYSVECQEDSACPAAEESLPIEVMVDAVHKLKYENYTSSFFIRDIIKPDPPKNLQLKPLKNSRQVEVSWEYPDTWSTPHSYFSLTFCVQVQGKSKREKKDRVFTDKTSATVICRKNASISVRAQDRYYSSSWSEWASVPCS
Experimental: All incubation steps were performed with shaking 300 rpm, and the plate was washed after each incubation step with 80 μl PBS/0.05% Tween 20 for five times using a Biotek ELx405 select CW washer. […] After washing, the receptor-coated wells were blocked with 60 μl PBS-T/BSA for 1 h at room temperature.
After washing, 60 μl MSD Read Buffer T (2×) was added to each well and the plate was read within 15 min.

human IL-23 [3] = molecular target: T2, human IL-23; experiment: SPR (Biacore T200), IL-23 amine-coupled to CM5 chip, mutein in solution, 25 C, 1:1 binding model
Experimental: (§2) Residual activated groups were quenched with ethanolamine. The reference channels were treated with EDC/NHS following ethanolamine (blank immobilization).
(§3) The binding assay was carried out with a contact time of 300 s, dissociation time of 1200 s and applying a flow rate of 30 μL/min. All measurements were performed at 25° C. […] Prior to the protein measurements three startup cycles were performed for conditioning purposes. Data were evaluated with Biacore T200 Evaluation software (V 1.0). Double referencing was used. The 1:1 Binding model was used to fit the raw data.

human IL-12p40 [4] = molecular target: T3, human IL-12p40 (human, UniProt P29460 23-328); experiment: solution competition ELISA, 10 nM SEQ ID NO: 9, plate with biotinylated hIL-23
T3 construct: also called hIL-12p40
T3 sequence (looked up): T2 sequence (looked up) 2
Experimental: as §1

human IL-23 [5] = molecular target: T2, human IL-23; experiment: SPR (Biacore T200), hIL-23 immobilized on CM5 chip, mutein injected, fit 1:1 Binding
Experimental: as §2, §3

human IL-23 [6] = molecular target: T2, human IL-23; experiment: Surface Plasmon Resonance, legend of FIG. 6B (rounded value of the measurement of the example)
Experimental: as §2, §3

human IL-23 [7] = molecular target: T2, human IL-23; experiment: Surface Plasmon Resonance, legend of FIG. 6C (rounded value of the measurement of the example)
Experimental: as §2, §3

human IL-12p40 [8] = molecular target: T3, human IL-12p40; experiment: solution competition ELISA, 1 nM SEQ ID NO: 10, plate with biotinylated hIL-23
Experimental: as §1

human IL-23 [9] = molecular target: T2, human IL-23; experiment: cell-based or functional assay
mouse IL-23 [10] = molecular target: T1, mouse IL-23; experiment: solution competition ELISA (FIG. 5A)
Experimental: as §1

binding result (mouse IL-23 [1]): binds
IC50 (human IL-23 [2]): 119 nM
Kd (human IL-23 [3]): 135 nM
koff (human IL-23 [3]): 0.00063 s⁻¹
kon (human IL-23 [3]): 4700 M⁻¹ s⁻¹
koff (human IL-23 [5]): 0.00063 s⁻¹
kon (human IL-23 [5]): 4650 M⁻¹ s⁻¹
Kd (human IL-23 [6]): 135 nM
B1: lipocalin mutein SEQ ID NO: 9 (designed binder)
chain: QDSTSDLIPAPPLSKVPLQQNFQDNQFHGKWYVVGMAGNLMLREDKDPTKMSATIYELKEDKSYNVTWVDFRFKKCKYQIGTFVPGSQPGEFTLGGIKSMPGMTSFLVRVVSTNYNQHAMVFFKYVYQNREYFEITLYGRTKELTSELKENFIRFSKSLGLPENHIVFPVPIDQCIDG
notes: Human NGAL (lipocalin 2) mutein specific for IL-23p19
binding result (human IL-12p40 [4]): no binding (tested: ligand up to 1000 nM)

Kd (human IL-23 [7]): 11 nM
IC50 (human IL-23 [2]): 1.9 nM
Kd (human IL-23 [3]): 11.5 nM
koff (human IL-23 [3]): 0.00048 s⁻¹
kon (human IL-23 [3]): 42000 M⁻¹ s⁻¹
koff (human IL-23 [5]): 0.000598 s⁻¹
kon (human IL-23 [5]): 36300 M⁻¹ s⁻¹
EC50 [nM] AVERAGE, hIL-23-induced proliferation of Ba/F3 cells expressing hIL-23R and hIL-12Rβ1 (human IL-23 [9]): 332 nM
EC50 [nM] Exp 1, hIL-23-induced proliferation of Ba/F3 cells expressing hIL-23R and hIL-12Rβ1 (human IL-23 [9]): 515 nM
EC50 [nM] Exp 2, hIL-23-induced proliferation of Ba/F3 cells expressing hIL-23R and hIL-12Rβ1 (human IL-23 [9]): 199 nM
EC50 [nM] Exp 3, hIL-23-induced proliferation of Ba/F3 cells expressing hIL-23R and hIL-12Rβ1 (human IL-23 [9]): 316 nM
EC50 [nM] Exp 4, hIL-23-induced proliferation of Ba/F3 cells expressing hIL-23R and hIL-12Rβ1 (human IL-23 [9]): 296 nM
binding result (mouse IL-23 [10]): binds
B2: lipocalin mutein SEQ ID NO: 10 (designed binder)
chain: QDSTSDLIPAPPLSKVPLQQNFQDNQFHGKWYVVGLAGNTILREDKDPDKMEATIYELKEDKSYNVTSVDFIMKKCWYFITTFVPGSQPGEFTLGHIKSMPGMTSFLVRVVSTNYNQHAMVFFKYVYQNREFFEITLYGRTKELTSELKENFIRFSKSLGLPENHIVFPVPIDQCIDG
notes: as for B1
binding result (human IL-12p40 [8]): no binding (tested: ligand up to 1000 nM)
